Patent US20140113348A1

Biological target: meditope-enabled trastuzumab Fab fragment
Experiment: SPR; meditope alone on the Fab fragment, not IgG

Chain of meditope-enabled trastuzumab Fab fragment (chain, as listed by the source limits assumed, chain 1 of 2): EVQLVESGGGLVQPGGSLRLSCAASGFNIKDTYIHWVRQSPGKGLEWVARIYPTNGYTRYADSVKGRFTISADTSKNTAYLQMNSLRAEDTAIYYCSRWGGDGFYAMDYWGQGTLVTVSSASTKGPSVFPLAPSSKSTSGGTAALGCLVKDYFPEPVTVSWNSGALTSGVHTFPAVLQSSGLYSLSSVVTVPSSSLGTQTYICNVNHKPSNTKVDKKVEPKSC
Chain of meditope-enabled trastuzumab Fab fragment (chain, as listed by the source limits assumed, chain 2 of 2): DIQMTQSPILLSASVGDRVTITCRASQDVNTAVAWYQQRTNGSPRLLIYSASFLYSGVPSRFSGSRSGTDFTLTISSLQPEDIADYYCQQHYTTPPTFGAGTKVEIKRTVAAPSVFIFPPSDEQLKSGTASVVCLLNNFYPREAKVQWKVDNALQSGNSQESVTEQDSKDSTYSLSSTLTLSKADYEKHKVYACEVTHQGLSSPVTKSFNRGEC

- Kd: 1000 nM
B1: cQFD meditope (cyclic …) (peptide)
peptide: CQFDLSTRRLKC
modifications: not checked
